Reference: the Human Domainome abundance scans (Beltran et al. 2025)
± gives the uncertainty stated by the source.

B1: Probable E3 ubiquitin-protein ligase MID2, residues 191 to 235; numbered along this chain, Q9UJV3 (parent)
chain: RGITCLDHENEKVNMYCVSDDQLICALCKLVGRHRDHQVASLNDR

Variants of: B1
Assay: abundance fitness (aPCA) (normalised: wild type 0, dead -1); higher = more abundant; growth selection in yeast, the domain comes from the species named
Conditions: Homo sapiens

**Q.** With RGITCLDHENEKVNMYCVSDDQLICALCKLVGRHRQHQVASLNDR as the variant, how does the abundance fitness read?
**A.** The abundance fitness was -0.235 ± 0.088.

**Q.** With RGITCLDHENEKVNMYCVSDDQLICALCKLVGRHHDHQVASLNDR as the variant, how does the abundance fitness read?
**A.** Its abundance fitness is -0.471 ± 0.32.

**Q.** Which abundance fitness does the source give for RGITCLDHENEKVNMYCVSDDQLICALCKLVGRHTDHQVASLNDR here?
**A.** Its abundance fitness is -0.195 ± 0.072.

**Q.** Which abundance fitness does the source give for RGITCLDHENEKVNMYCVSDDQLICALCKLVGRHPDHQVASLNDR here?
**A.** The abundance fitness was -0.195 ± 0.069.

**Q.** For RGITCLDHENEKVNMYCVSDDQLICALCKLVGRHQDHQVASLNDR, which abundance fitness is on record?
**A.** Its abundance fitness is -0.11 ± 0.19.

**Q.** For RGITCLDHENEKVNMYCVSDDQLICALCKLVGRHLDHQVASLNDR, which abundance fitness is on record?
**A.** The abundance fitness was -0.321 ± 0.068.

**Q.** For RGITCLDHENEKVNMYCVSDDQLICALCKLVGRHCDHQVASLNDR, which abundance fitness is on record?
**A.** The abundance fitness was -0.126 ± 0.071.

**Q.** With RGITCLDHENEKVNMYCVSDDQLICALCKLVGRHEDHQVASLNDR as the variant, how does the abundance fitness read?
**A.** Its abundance fitness is 0.09 ± 0.092.

**Q.** For RGITCLDHENEKVNMYCVSDDQLICALCKLVGRHWDHQVASLNDR, which abundance fitness is on record?
**A.** Its abundance fitness is -0.602 ± 0.093.

**Q.** For RGITCLDHENEKVNMYCVSDDQLICALCKLVGRHMDHQVASLNDR, which abundance fitness is on record?
**A.** Its abundance fitness is -0.024 ± 0.1.

**Q.** Which abundance fitness does the source give for RGITCLDHENEKVNMYCVSDDQLICALCKLVGRHDDHQVASLNDR here?
**A.** The abundance fitness was -0.242 ± 0.1.

**Q.** For RGITCLDHENEKVNMYCVSDDQLICALCKLVGRHVDHQVASLNDR, which abundance fitness is on record?
**A.** Its abundance fitness is -0.05 ± 0.061.

**Q.** For RGITCLDHENEKVNMYCVSDDQLICALCKLVGRHKDHQVASLNDR, which abundance fitness is on record?
**A.** Its abundance fitness is 0.019 ± 0.083.

**Q.** For RGITCLDHENEKVNMYCVSDDQLICALCKLVGRHIDHQVASLNDR, which abundance fitness is on record?
**A.** The abundance fitness was 0.303 ± 0.22.

**Q.** For RGITCLDHENEKVNMYCVSDDQLICALCKLVGRHGDHQVASLNDR, which abundance fitness is on record?
**A.** The abundance fitness was -0.002 ± 0.05.

**Q.** For RGITCLDHENEKVNMYCVSDDQLICALCKLVGRHFDHQVASLNDR, which abundance fitness is on record?
**A.** Its abundance fitness is -0.529 ± 0.12.

**Q.** Which abundance fitness does the source give for RGITCLDHENEKVNMYCVSDDQLICALCKLVGRHADHQVASLNDR here?
**A.** Its abundance fitness is 0.064 ± 0.053.

**Q.** With RGITCLDHENEKVNMYCVSDDQLICALCKLVGRHRDHTVASLNDR as the variant, how does the abundance fitness read?
**A.** The abundance fitness was -0.195 ± 0.1.

**Q.** Which abundance fitness does the source give for RGITCLDHENEKVNMYCVSDDQLICALCKLVGRHRDHMVASLNDR here?
**A.** The abundance fitness was -0.25 ± 0.085.

**Q.** For RGITCLDHENEKVNMYCVSDDQLICALCKLVGRHRDHAVASLNDR, which abundance fitness is on record?
**A.** Its abundance fitness is -0.113 ± 0.073.

**Q.** With RGITCLDHENEKVNMYCVSDDQLICALCKLVGRHRDHGVASLNDR as the variant, how does the abundance fitness read?
**A.** Its abundance fitness is -0.191 ± 0.052.

**Q.** Which abundance fitness does the source give for RGITCLDHENEKVNMYCVSDDQLICALCKLVGRHRDHPVASLNDR here?
**A.** The abundance fitness was -0.092 ± 0.056.

**Q.** For RGITCLDHENEKVNMYCVSDDQLICALCKLVGRHRDHFVASLNDR, which abundance fitness is on record?
**A.** The abundance fitness was -0.69 ± 0.18.

**Q.** With RGITCLDHENEKVNMYCVSDDQLICALCKLVGRHRDHYVASLNDR as the variant, how does the abundance fitness read?
**A.** The abundance fitness was -0.16 ± 0.21.

**Q.** With RGITCLDHENEKVNMYCVSDDQLICALCKLVGRHRDHWVASLNDR as the variant, how does the abundance fitness read?
**A.** The abundance fitness was -0.369 ± 0.098.

**Q.** Which abundance fitness does the source give for RGITCLDHENEKVNMYCVSDDQLICALCKLVGRHRDHCVASLNDR here?
**A.** The abundance fitness was -0.152 ± 0.1.

**Q.** For RGITCLDHENEKVNMYCVSDDQLICALCKLVGRHRDHEVASLNDR, which abundance fitness is on record?
**A.** The abundance fitness was 0.105 ± 0.054.

**Q.** For RGITCLDHENEKVNMYCVSDDQLICALCKLVGRHRDHDVASLNDR, which abundance fitness is on record?
**A.** Its abundance fitness is 0.117 ± 0.089.

**Q.** For RGITCLDHENEKVNMYCVSDDQLICALCKLVGRHRDHIVASLNDR, which abundance fitness is on record?
**A.** The abundance fitness was -0.357 ± 0.21.

**Q.** For RGITCLDHENEKVNMYCVSDDQLICALCKLVGRHRDHRVASLNDR, which abundance fitness is on record?
**A.** The abundance fitness was -0.002 ± 0.053.

**Q.** For RGITCLDHENEKVNMYCVSDDQLICALCKLVGRHRDHLVASLNDR, which abundance fitness is on record?
**A.** Its abundance fitness is -0.259 ± 0.067.

**Q.** Which abundance fitness does the source give for RGITCLDHENEKVNMYCVSDDQLICALCKLVGRHRDHVVASLNDR here?
**A.** Its abundance fitness is 0.005 ± 0.059.

**Q.** With RGITCLDHENEKVNMYCVSDDQLICALCKLVGRHRDHNVASLNDR as the variant, how does the abundance fitness read?
**A.** Its abundance fitness is -0.104 ± 0.2.

**Q.** With RGITCLDHENEKVNMYCVSDDQLICALCKLVGRHRDRQVASLNDR as the variant, how does the abundance fitness read?
**A.** The abundance fitness was -0.492 ± 0.061.

**Q.** Which abundance fitness does the source give for RGITCLDHENEKVNMYCVSDDQLICALCKLVGRHRDYQVASLNDR here?
**A.** The abundance fitness was -0.519 ± 0.12.

**Q.** For RGITCLDHENEKVNMYCVSDDQLICALCKLVGRHRDKQVASLNDR, which abundance fitness is on record?
**A.** Its abundance fitness is 0.271 ± 0.068.

**Q.** With RGITCLDHENEKVNMYCVSDDQLICALCKLVGRHRDTQVASLNDR as the variant, how does the abundance fitness read?
**A.** The abundance fitness was -0.295 ± 0.065.

**Q.** With RGITCLDHENEKVNMYCVSDDQLICALCKLVGRHRDSQVASLNDR as the variant, how does the abundance fitness read?
**A.** Its abundance fitness is -0.482 ± 0.091.

**Q.** With RGITCLDHENEKVNMYCVSDDQLICALCKLVGRHRDIQVASLNDR as the variant, how does the abundance fitness read?
**A.** The abundance fitness was -1.04 ± 0.31.

**Q.** For RGITCLDHENEKVNMYCVSDDQLICALCKLVGRHRDMQVASLNDR, which abundance fitness is on record?
**A.** The abundance fitness was -0.684 ± 0.1.

**Q.** For RGITCLDHENEKVNMYCVSDDQLICALCKLVGRHRDQQVASLNDR, which abundance fitness is on record?
**A.** Its abundance fitness is -0.365 ± 0.093.

**Q.** With RGITCLDHENEKVNMYCVSDDQLICALCKLVGRHRDLQVASLNDR as the variant, how does the abundance fitness read?
**A.** Its abundance fitness is -0.584 ± 0.11.

**Q.** Which abundance fitness does the source give for RGITCLDHENEKVNMYCVSDDQLICALCKLVGRHRDAQVASLNDR here?
**A.** Its abundance fitness is -0.313 ± 0.065.

**Q.** For RGITCLDHENEKVNMYCVSDDQLICALCKLVGRHRDGQVASLNDR, which abundance fitness is on record?
**A.** The abundance fitness was -0.283 ± 0.056.

**Q.** With RGITCLDHENEKVNMYCVSDDQLICALCKLVGRHRDDQVASLNDR as the variant, how does the abundance fitness read?
**A.** Its abundance fitness is -0.274 ± 0.09.

**Q.** With RGITCLDHENEKVNMYCVSDDQLICALCKLVGYHRDHQVASLNDR as the variant, how does the abundance fitness read?
**A.** The abundance fitness was -0.088 ± 0.24.

**Q.** Which abundance fitness does the source give for RGITCLDHENEKVNMYCVSDDQLICALCKLVGKHRDHQVASLNDR here?
**A.** Its abundance fitness is 0.084 ± 0.061.

**Q.** Which abundance fitness does the source give for RGITCLDHENEKVNMYCVSDDQLICALCKLVGIHRDHQVASLNDR here?
**A.** Its abundance fitness is -0.106 ± 0.11.

**Q.** Which abundance fitness does the source give for RGITCLDHENEKVNMYCVSDDQLICALCKLVGSHRDHQVASLNDR here?
**A.** The abundance fitness was -0.112 ± 0.081.

**Q.** Which abundance fitness does the source give for RGITCLDHENEKVNMYCVSDDQLICALCKLVGMHRDHQVASLNDR here?
**A.** The abundance fitness was -0.046 ± 0.24.

**Q.** With RGITCLDHENEKVNMYCVSDDQLICALCKLVGTHRDHQVASLNDR as the variant, how does the abundance fitness read?
**A.** Its abundance fitness is -0.024 ± 0.068.

**Q.** With RGITCLDHENEKVNMYCVSDDQLICALCKLVGVHRDHQVASLNDR as the variant, how does the abundance fitness read?
**A.** Its abundance fitness is -0.073 ± 0.059.

**Q.** Which abundance fitness does the source give for RGITCLDHENEKVNMYCVSDDQLICALCKLVGQHRDHQVASLNDR here?
**A.** Its abundance fitness is -0.006 ± 0.08.

**Q.** For RGITCLDHENEKVNMYCVSDDQLICALCKLVGLHRDHQVASLNDR, which abundance fitness is on record?
**A.** Its abundance fitness is -0.026 ± 0.064.

**Q.** For RGITCLDHENEKVNMYCVSDDQLICALCKLVGWHRDHQVASLNDR, which abundance fitness is on record?
**A.** Its abundance fitness is -0.39 ± 0.076.

**Q.** With RGITCLDHENEKVNMYCVSDDQLICALCKLVGPHRDHQVASLNDR as the variant, how does the abundance fitness read?
**A.** The abundance fitness was 0.038 ± 0.12.

**Q.** For RGITCLDHENEKVNMYCVSDDQLICALCKLVGNHRDHQVASLNDR, which abundance fitness is on record?
**A.** Its abundance fitness is -0.127 ± 0.094.
